We go through 1 substance from US20100081611A1.

The target of the assay is pre-assembled ICN-CSL complex (UniProt P46531). As to the kind of experiment: surface plasmon resonance, peptide immobilized, pre-assembled ICN-CSL complex. (In general: SPR reads the build-up and loss of mass on a sensor chip optically.)
Sequence of pre-assembled ICN-CSL complex (P46531 1760-2126, chain 1 of 2): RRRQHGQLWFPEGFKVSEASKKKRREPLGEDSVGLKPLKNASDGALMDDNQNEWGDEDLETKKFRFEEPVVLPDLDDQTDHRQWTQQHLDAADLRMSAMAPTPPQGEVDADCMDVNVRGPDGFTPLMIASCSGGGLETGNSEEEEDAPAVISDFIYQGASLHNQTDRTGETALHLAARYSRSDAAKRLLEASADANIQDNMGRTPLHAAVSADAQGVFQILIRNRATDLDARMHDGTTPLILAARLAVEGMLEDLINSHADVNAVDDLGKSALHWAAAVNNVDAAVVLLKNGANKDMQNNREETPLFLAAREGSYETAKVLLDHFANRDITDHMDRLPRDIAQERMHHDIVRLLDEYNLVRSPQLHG
Sequence of pre-assembled ICN-CSL complex (Q06330 23-449, chain 2 of 2, further chain): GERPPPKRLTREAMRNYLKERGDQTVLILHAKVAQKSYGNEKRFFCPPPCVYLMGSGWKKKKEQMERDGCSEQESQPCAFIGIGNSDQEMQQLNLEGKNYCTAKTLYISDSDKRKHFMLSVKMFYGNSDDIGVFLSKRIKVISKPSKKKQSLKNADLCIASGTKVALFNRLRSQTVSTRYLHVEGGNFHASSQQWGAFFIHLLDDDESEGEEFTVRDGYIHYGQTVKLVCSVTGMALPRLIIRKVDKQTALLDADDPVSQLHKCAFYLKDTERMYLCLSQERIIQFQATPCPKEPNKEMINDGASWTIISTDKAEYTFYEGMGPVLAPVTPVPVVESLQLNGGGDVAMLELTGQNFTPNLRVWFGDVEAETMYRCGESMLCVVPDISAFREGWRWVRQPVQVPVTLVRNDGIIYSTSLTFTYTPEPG

As usually defined, the Kd is the equilibrium constant for the complex coming apart. As for “SAHN1 (REM-G1), internally cross-linked (stapled) MAML-1 polypeptide”, the Kd was 98 nM.
